{
  "source": "the DeepSol protein solubility set",
  "data": [
    {"experiment": "soluble on expression in E. coli; label from the status in PepcDB or PDB records", "values": [
      {"sequence": "GPSPVGQQYHVEKFSGLRIRKPRVSSSEMERKMNGRKLIRLAQLQNKIATEKLEEEDWVTFGVIVKKITPQSSNNGKTFSIWRLNDLKDLDKYISLFLFGDVHKEHWKTDQGTVIGLLNANPMKPKEGTDEVCLSVDNPQKVLLMGDAVDLGTCKARKKNGDPCTQMVNLNDCEYCQYHVQAQYKKVSSKRADLQSSYSG", "soluble on expression in E. coli": "soluble"},
      {"sequence": "GQHTLKQFAADSALTTTTPLCSEVPLFDINALGDWTYLGTSLPAKFAKLFASILHCIDDEYFLITPVEKVRVQVEDAPLLIVDFERAQPHSLLNVSTSIGTLHHNVDIKQMKLTDDSVYLPLERGLWGKLGRACYYNFVNEFNLSDLNEQ", "soluble on expression in E. coli": "soluble"},
      {"sequence": "GRDFRFSISPNFTWVKNAVEKLANGATEEINNNRIVGQPIGIIYGYETDGLFVDQAEIDAAPEQLVSKSGLKPGYVKYKDISGPDGVPDGKVDAQYDRTVLGSTTPKFYYGLNLSASYKGFDFSALLQGLGGHKRLIGSYMAYAFYNGGQIQRWQAESCWKEENPDKWAEYPRLETLNMNDTNLQTSDYWVRNASFLRVKNIQIGYTFPKAWTKKIGLENVRVYVSGQNLFSFNSFYKGWDPENEIGTGDSPSYYPVNSIYSFGFNFKF", "soluble on expression in E. coli": "not soluble"},
      {"sequence": "GSASPTPPYLKWAESLHSLLDDQDGISLFRTFLKQEGCADLLDFWFACTGFRKLEPCDSNEEKRLKLARAIYRKYILDNNGIVSRQTKPATKSFIKGCIMKQLIDPAMFDQAQTEIQATMEENTYPSFLKSDIYLEYTRTGSESPKV", "soluble on expression in E. coli": "soluble"},
      {"sequence": "GSCASCPNNCENGLCTNSCDFEDLLSNCESLKTSAGCKHELLKTKCQATCLCEDKIH", "soluble on expression in E. coli": "soluble"},
      {"sequence": "GSDEKRLHFGNGHLKLPGLRTYVDPHTYEDPTQTVHEFAKELDATNISIDKVVGAGEFGEVCSGRLKLPSKKEISVAIKTLKVGYTEKQRRDFLGEASIMGQFDHPNIIRLEGVVTKSKPVMIVTEYMENGSLDSFLRKHDAQFTVIQLVGMLRGIASGMKYLSDMGYVHRDLAARNILINSNLVCKVSDFGLSRVLEDDPEAAYTTRGGKIPIRWTSPEAIAYRKFTSASDVWSYGIVLWEVMSYGERPYWEMSNQDVIKAVDEGYRLPPPMDCPAALYQLMLDCWQKDRNNRPKFEQIVSILDKLIRNPGSLKIITSAAARPSNLLLDQSNVDITTFRTTGDWLNGVWTAHCKEIFTGVEYSSCDTIAKIS", "soluble on expression in E. coli": "soluble"},
      {"sequence": "GSEAWMNFYLEEFNLSIPDSGPYGITSSEDGKVWFTQHKANKISSLDQSGRIKEFEVPTPDAKVMCLIVSSLGDIWFTENGANKIGKLSKKGGFTEYPLPQPDSGPYGITEGLNGDIWFTQLNGDRIGKLTADGTIYEYDLPNKGSYPAFITLGSDNALWFTENQNNSIGRITNTGKLEEYPLPTNAAAPVGITSGNDGALWFVEIMGNKIGRITTTGEISEYDIPTPNARPHAITAGKNSEIWFTEWGANQIGRITNDNTIQEYQLQTENAEPHGITFGKDGSVWFALKCKIGKLNLNE", "soluble on expression in E. coli": "soluble"},
      {"sequence": "GSEVYKKAPPYPEQVVSASGKVLMTKDDILAGQSAWQTTGGMEVGSILGHGAYQAPDWTADWLHRELVAWLDLTAQQTYGKKFDEVSPEEQAVLKTRLADEYRNQSRVKEDGSVVISDTRVKAIESILPYYHGVYSDDPKFQTTREHFAMKNNTLPSQEAREKLFNFFFWTSWSASTNRPDENFTYTNNWPHEPLINNVPTTEN", "soluble on expression in E. coli": "not soluble"},
      {"sequence": "GSGAVTAGAAPRILKHQVVRAELDRMLDGMRIGDPFPAEREIAEQFEVARETVRQALRELLIDGRVERRGRTTVVARPKIRQPLGMGSYTEAAKAQGLSAGRILVAWSDLTADEVLAGVLGVDVGAPVLQLERVLTTDGVRVGLETTKLPAQRYPGLRETFDHEASLYAEIRSRGIAFTRTVDTIDTALPDAREAALLGADARTPMFLLNRVSYDQDDVAIEQRRSLYRGDRMTFTAVMHAKNSAIVS", "soluble on expression in E. coli": "soluble"},
      {"sequence": "GSGMKETAAAKFGERQHMDSPDLGTDDDDKAMACSAGPSGFFTRLGRLIKEKAKSDVEKVFSGFSKTRENLAVIDELLLFWNLAETDRVLDELEEALLVSDFGPKITVRIVERLREDIMSGKLKSGSEIKDALKESVLEMLAKKNSKTELQLGFRKPAVIMIVGVNGGGKTTSLGKLAHRLKNEGTKVLMAAGDTFRAAASDQLEIWAERTGCEIVVAEGDKAKAATVLSKAVKRGKEEGYDVVLCDTSGRLHTNYSLMEELIACKKAVGKIVSGAPNEILLVLDGNTGLNMLPQAREFNEVVGITGLILTKLDGSARGGCVVSVVEELGIPVKFIGVGEAVEDLQPFDPEAFVNAIFS", "soluble on expression in E. coli": "soluble"},
      {"sequence": "GSHEHPEFLKAGKEPGLQIWRVEKFDLVPVPTNLYGDFFTGDAYVILKTVQLRNGNLQYDLHYWLGNECSQDESGAAAIFTVQLDDYLNGRAVQHREVQGFESATFLGYFKSGLKYKKGGVASGFKHVETQEKNPLPSKETIEQEKQ", "soluble on expression in E. coli": "soluble"},
      {"sequence": "GSHMDKIKLLKAAFLQYCRKDLGHAQMVVDELFSSHSDLDSDSELDRAVTQISVDLMDDYPASDPRWAESVPEEAPGFSNTSLIILHQLEDKMKAHSFLMDFIHQVGLFGRLGSFPVRGTPMATRLLLCEHAEKLSAAIVLKNHHSRLSDLVNTAILIALNKREYEIPSNLTPADVFFREVSQVDTICECLLEHEEQVLRDAPMDSIEWAEVVINVNNILKDMLQAASHYRQNRNSLYRREESLEKEPEYVPWTATSGPGGIRTVIIRQHEIVLKVAYPQADSNLRNIVTEQLVALIDCFLDGYVSQLKSVDKSSNRERYDNLEMEYLQKRSDLLSPLLSLGQYLWAASLAEKYCDFDILVQMCEQTDNQSRLQRYMTQFADQNFSDFLFRWYLEKGKRGKLLSQPISQHGQLANFLQAHEHLSWLHEINSQELEKAHATLLGLANMETRYFAKKKTLLGLSKLAALASDFSEDMLQEKIEEMAEQERFLLHQETLPEQLLAEKQLNLSAMPVLTAPQLIGLYICEENRRANEYDFKKALDLLEYIDEEEDININDLKLEILCKALQRDNWSSSDGKDDPIEVSKDSIFVKILQKLLKDGIQLSEYLPEVKDLLQADQLGSLKSNPYFEFVLKANYEYYVQGQI", "soluble on expression in E. coli": "soluble"},
      {"sequence": "GSHMEDSTTNITKKQKWTVEESEWVKAGVQKYGEGNWAAISKNYPFVNRTAVMIKDRWRTMKRLGMN", "soluble on expression in E. coli": "soluble"},
      {"sequence": "GSHMKETKKAGPIELPEELEAQRQRHNDPRRPPWPLLHQRVVLLREGKGAPEDIALMWEQTKHYYPADWLIPLELTQVLKYSSGKYLQTYVADPDEMRKEVLMQLLNVKYGRVSDPNGGRVNKDVEEIISMAVDDLENMDLNPAADAVLIPTHT", "soluble on expression in E. coli": "soluble"},
      {"sequence": "GSHMLHWGPKYWRSLHLYAIFFSDAPSWKEKYEAIQWILNFIESLPCTRCQHHAFSYLTKNPLTLNNSEDFQYWTFAFHNNVNNRLNKKIISWSEYKNIYEQSILK", "soluble on expression in E. coli": "soluble"},
      {"sequence": "GSHMQQWVDCEFTGRDFRDEDLSRLHTERAMFSECDFSGVNLAESQHRGSAFRNCTFERTTLWHSTFAQCSMLGSVFVACRLRPLTLDDVDFTLAVLGGNDLRGLNLTGCRLRETSLVDTDLRKCVLRGADLSGARTTGARLDDADLRGATVDPVLWRTASLVGARVDVDQAVAFAAAHGLCLAGG", "soluble on expression in E. coli": "soluble"},
      {"sequence": "GSHMSGEDAEVRAVSEDVSNGSSGSPSPGDTLPWNLGKTQRSRRSGGGAGSNGSVLDPAERAVIRIADERDRVQKKTFTKWVNKHLIKAQRHISDLYEDLRDGHNLISLLEVLSGDSLPREKGRMRFHKLQNVQIALDYLRHRQVKLVNIRNDDIADGNPKLTLGLIWTIILHFQISDIQVSGQSEDMTAKEKLLLWSQRMVEGYQGLRCDNFTSSWRDGRLFNAIIHRHKPLLIDMNKVYRQTNLENLDQAFSVAERDLGVTRLLDPEDVDVPQPDEKSIITYVSSLYDAMPRVP", "soluble on expression in E. coli": "soluble"},
      {"sequence": "GSHMSYADSSRNAVLTNGGRTLRAECRNADGNWVTSELDLDTIIGNNDGHFQWGGQNFTETAEDIRFHPKEGAAEQPILRARLRDCNGEFHDRDVNLNRIQNVNGRLVFQ", "soluble on expression in E. coli": "soluble"},
      {"sequence": "GSHMTEAEYLANYDPKAFKAQLLTVDAVLFTYHDQQLKVLLVQRSNHPFLGLWGLPGGFIDETCDESLEQTVLRKLAEKTAVVPPYIEQLCTVGNNSRDARGWSVTVCYTALMSYQACQIQIASVSDVKWWPLADVLQMPLAFDHLQLIEQARERLTQKALYSLVPGFALSEPFTLPELQHVHEVLLGKPIQGKSFRRRVEQADLLIDTGLKRTERGRPANLYCLKPDTASYRFLRNLEC", "soluble on expression in E. coli": "soluble"},
      {"sequence": "GSHMTNVTGDYTDCTPLLGDRAALDSFYEEHGYLFLRNVLDRDLVKTVAEQMREGLVALGAADPHATLEELTIDSFESVDEVAMHDYVKYDAFWNNPSTIKVFEQVFGEPVFVFLSTTIRYYPSQAGSEEPSFHYLTPFHQDGFYIGPNQDFRTFWIPLIRTTRESGGVALADGSHRRGKRDHVLNESFRRFGHPVRGIPPTEVSEDEHLLHSPMEPGDILLFHAHMCHKSIPNLSKDPRLMRMSMDTRVQPAKSHRGFNAMTPWTESAKDASKGIMAKITGTPTDVE", "soluble on expression in E. coli": "soluble"},
      {"sequence": "GSIPGLERALQQYTLEPSEKPFDLKSVPLATAPLAEQRTESTPVTAAKQPEKVAATRQEIFQEQLAAVPEFQGLGPLFKSSPEPVALTESETEYVIRCTKHTFTDHMVFQFDCTNTLNDQTLENVTVQMEPSEAYEVLCYVPARSLPYNQPGTCYTLVALPKEDPTAVACTFSCVMKFTVKDCDPTTGEADDEGYEDEYVLEDLEVTIADHIQKVMKLNFEAAWDEVGDEFQKEETFTLSTIKTLEEAVGNIVKFLGMHPCERSDKVPDNKNTHTLLLAGVFRGGHDILVRSRLLLLDTVTMQVTARSSEELPVDIVLASVG", "soluble on expression in E. coli": "soluble"},
      {"sequence": "GSMADEALFLLLHNEMVSGVYKSAEQGEVENGRCITKLENMGFRVGQGLIERFTKDTARFKDELDIMKFICKDFWTTVFKKQIDNLRTNHQGIYVLQDNKFRLLTQMSAGKQYLEHASKYLAFTCGLIRGGLSNLGIKSIVTAEVSSMPACKFQVMIQKL", "soluble on expression in E. coli": "soluble"},
      {"sequence": "GSMDALNSKEQQEFQKVVEQKQMKDFMRLYSNLVERCFTDCVNDFTTSKLTNKEQTCIMKCSEKFLKHSERVGQRFQEQNAALGQGLGR", "soluble on expression in E. coli": "soluble"},
      {"sequence": "GSMDYKDDDDKKTNWLKRIYRVRPCVKCKVAPRDWKVKNKHLRIFNMCKTCFNNSIDIGDDTYHGHVDWLMYADSKEISNT", "soluble on expression in E. coli": "soluble"},
      {"sequence": "GSMSFLGFGGGQPQLSSQQKIQAAEAELDLVTDMFNKLVNNCYKKCINTSYSEGELNKNESSCLDRCVAKYFETNVQVGENMQKMGQSFNAAGKF", "soluble on expression in E. coli": "soluble"},
      {"sequence": "GSMVENSELRKAGLKVTLPRVKILQMLDSAEQRHMSAEDVYKALMEAGEDVGLATVYRVLTQFEAAGLVVRHNFDGGHAVFELADSGHHDHMVCVDTGEVIEFMDAEIEKRQKEIVRERGFELVDHNLVLYVRKKK", "soluble on expression in E. coli": "soluble"},
      {"sequence": "GSPGISGGGGGILDSMVEKEEPKEEEKLGKLQYSLDYDFQNNQLLVGIIQAAELPALDMGGTSDPYVKVFLLPDKKKKFETKVHRKTLNPVFNEQFTFKVPYSELGGKTLVMAVYDFDRFSKHDIIGEFKVPMNTVDFGHVTEEWRDLQSAE", "soluble on expression in E. coli": "soluble"},
      {"sequence": "GSSEDKITVHFINRDGETLTTKGKIGDSLLDVVVQNNLDIDGFGACEGTLACSTCHLIFEQHIFEKLEAITDEENDMLDLAYGLTDRSRLGCQICLTKAMDNMTVRVPDAVSDARESIDMGMNSSKIE", "soluble on expression in E. coli": "soluble"},
      {"sequence": "GSSGSSGMKQATRKPTTPGDILLYEYLEPLDLKINELAELLHVHRNSVSALINNNRKLTTEMAFRLAKVFDTTVDFWLNLQAAVDLWEVENNMRTQEELGRIETVAEYLARREERAKKVA", "soluble on expression in E. coli": "soluble"},
      {"sequence": "GSSGSSGNWIDVRYDLEKIESLIQSIHIDTTLYTDSDFHPSCKVTAMNCFLLELQVILHEYSNMTLNETVRNVLYLANSTLSSNKNVAESGCKECEELEEKTFTEFLQSFIRIVQMFINTS", "soluble on expression in E. coli": "soluble"}
    ]}
  ]
}
